The values that follow come from PMC2947992, “Structure of the Extracellular Portion of CD46 Provides Insights into Its Interactions with Complement Proteins and Pathogens” (PLoS Pathogens, 2010).

Data set [1] has as its target human adenovirus type 11 fiber knob (human adenovirus type 11) (UniProt P35774). As to the kind of experiment: crystal structure; complex formed from purified proteins at 4°C for 2 hrs with a 1.2 molar excess of CD46-4D, separated from unbound CD46-4D by size exclusion chromatography (20 mM HEPES, 150 mM NaCl, pH 7.4); crystals at 4°C in 20% polyethylene glycol 1000, 0.2 M ammonium phosphate pH 8.0; space group P6_(3), 2.84 Å. (In general: In gel filtration, larger molecules generally elute earlier.)

Data set [2] concerns the molecule itself. Described as above.

Regarding “CD46-4D, extracellular segment of human CD46 (membrane cofactor protein) comprising all four SCR domains (domain or fragment)”, in data set [1], the stoichiometry N (CD46-4D molecules per knob trimer) came out at 3.

B1: human adenovirus type 11 fiber knob (domain or fragment)
chain: LTFNSNNICIDDNINTLWTGVNPTEANCQIMNSSESNDCKLILTLVKTGALVTAFVYVIGVSNNFNMLTTHRNINFTAELFFDSTGNLLTRLSSLKTPLNHKSGQNMATGAITNAKGFMPSTTAYPFNDNSREKENYIYGTCYYTASDRTAFPIDISVMLNRRAINDETSYCIRITWSWNTGDAPEVQTSATTLVTSPFTFYYIREDD
notes: fiber protein of human adenovirus type 11, knob domain, amino acids 118-325; also called Ad11 knob; Ad11 fiber knob
Usually stoichiometry N stands for the number of molecules, sites or subunits per partner or assembly. B1: the “stoichiometry N” value in data set [2] was 3 protomers.
